Data: US20220048967A1 (published 2022)
Numbered stars: 1 amine (or outer) side, 2 acyl side, 3 side chain; on linkers, the order of the positions; unused ones are H or OH. Square brackets hold non-standard residues; d marks the D form. Side chains are listed from the residue outwards. Ends that are not written are not given here. * marks the point of attachment. C18 diacid = O=C(O)CCCCCCCCCCCCCCCCC(=O)*; γGlu = O=C(O)[C@H](CCC(=O)[*:2])N[*:1]; AEEA = NCCOCCOCC(=O)O; Aib = CC(C)(N)C(=O)O

T1: human gastric inhibitory peptide receptor (GIPR) (human, UniProt P48546 22-466)
T1 sequence (looked up): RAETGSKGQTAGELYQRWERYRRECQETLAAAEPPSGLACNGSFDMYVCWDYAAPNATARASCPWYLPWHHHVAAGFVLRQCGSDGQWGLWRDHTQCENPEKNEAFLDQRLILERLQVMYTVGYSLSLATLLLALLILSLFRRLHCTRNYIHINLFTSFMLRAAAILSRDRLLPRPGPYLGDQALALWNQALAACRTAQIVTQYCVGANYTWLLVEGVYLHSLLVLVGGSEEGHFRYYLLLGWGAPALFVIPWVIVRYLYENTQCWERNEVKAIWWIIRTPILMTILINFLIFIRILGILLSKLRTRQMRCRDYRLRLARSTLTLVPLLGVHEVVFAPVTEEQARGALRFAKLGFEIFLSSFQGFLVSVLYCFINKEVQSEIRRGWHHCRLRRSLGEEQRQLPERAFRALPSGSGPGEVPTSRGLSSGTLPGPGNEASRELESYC


Tests used:
[1] = target: T1, human gastric inhibitory peptide …; test: cell-based or functional assay
[2] = target: human GLP-1 receptor (GLP-1R) (human, UniProt P43220 24-463); test: cell-based or functional assay

Row | Binder | hGIPR cAMP Rel EC50 [1] | hGLP1R cAMP Rel EC50 [2] | hGIPR cAMP EC50 ratio [1] | hGLP1R cAMP EC50 ratio [2]
1 | YXEGTFTSDYSILLDKKAQXAFIEYLIEGGPSSGAPPPS (Aib2, (2-[2-(2-Amino-ethoxy)-ethoxy]-acetyl)2-(γ-Glu)-CO-(CH2)16-CO2H on K17, Aib20, C-terminal NH2) [Example 315] | 0.0408 nM | 0.0651 nM |  | 
2 | YXEGTFTSDYSIXLDKKAQXAFIEYLIEGGPSSG (Aib2, αMeL13, (2-[2-(2-Amino-ethoxy)-ethoxy]-acetyl)2-(γ-Glu)-CO-(CH2)16-CO2H on K17, Aib20, C-terminal NH2) [Example 300] | 0.0234 nM | 0.0867 nM | 5.38 | 0.636
3 | YXEGTFTSDYSIXLDKKAQXEFIEYLIAGGPSSG (Aib2, αMeL13, (2-[2-(2-Amino-ethoxy)-ethoxy]-acetyl)2-(γ-Glu)-CO-(CH2)16-CO2H on K17, Aib20, C-terminal NH2) [Example 306] | 0.0191 nM | 0.0711 nM | 3.97 | 0.912
4 | YXEGTXTSDYSILLDKKAQXAFIEYLIEGGPSSG (Aib2, αMeF6, (2-[2-(2-Amino-ethoxy)-ethoxy]-acetyl)2-(γ-Glu)-CO-(CH2)16-CO2H on K17, Aib20, C-terminal NH2) [Example 301] | 0.0346 nM | 0.0441 nM | 4.11 | 1.61
5 | YXEGTXTSDYSILLDKKAQXAFIEYLIEGGPSSG (Aib2, αMeF(2F)6, (2-[2-(2-Amino-ethoxy)-ethoxy]-acetyl)2-(γ-Glu)-CO-(CH2)16-CO2H on K17, Aib20, C-terminal NH2) [Example 302] | 0.0308 nM | 0.0275 nM | 3.78 | 1.96
6 | YXEGTFTSDYSIXLDKKAQXEFIEYLIEGGPSSG (Aib2, αMeL13, (2-[2-(2-Amino-ethoxy)-ethoxy]-acetyl)2-(γ-Glu)-CO-(CH2)16-CO2H on K17, Aib20, C-terminal NH2) [Example 304] | 0.0296 nM | 0.191 nM | 2.68 | 0.481
7 | YXEGTXTSDYSILLDKKAQXAFIEYLIAGGPSSG (Aib2, αMeF6, (2-[2-(2-Amino-ethoxy)-ethoxy]-acetyl)2-(γ-Glu)-CO-(CH2)16-CO2H on K17, Aib20, C-terminal NH2) [Example 309] | 0.0389 nM | 0.033 nM | 1.64 | 1.27
8 | YXEGTXTSDYSILLDKKAQXEFIEYLIEGGPSSG (Aib2, αMeF(2F)6, (2-[2-(2-Amino-ethoxy)-ethoxy]-acetyl)2-(γ-Glu)-CO-(CH2)16-CO2H on K17, Aib20, C-terminal NH2) [Example 312] | 0.0207 nM | 0.0262 nM | 4.76 | 1.53
9 | YXEGTXTSDYSILLDKKAQXEFIEYLIAGGPSSG (Aib2, αMeF6, (2-[2-(2-Amino-ethoxy)-ethoxy]-acetyl)2-(γ-Glu)-CO-(CH2)16-CO2H on K17, Aib20, C-terminal NH2) [Example 310] | 0.0176 nM | 0.0283 nM | 5.56 | 1.43
10 | YXEGTXTSDYSILLDEKAQXAFIEYLIEGGPSSG (Aib2, αMeF(2F)6, (2-[2-(2-Amino-ethoxy)-ethoxy]-acetyl)2-(γ-Glu)-CO-(CH2)16-CO2H on K17, Aib20, C-terminal NH2) [Example 311] | 0.0334 nM | 0.0393 nM | 3.5 | 1.04
11 | YXEGTXTSDYSILLDKKAQXAFIEYLIAGGPSSG (Aib2, αMeF(2F)6, (2-[2-(2-Amino-ethoxy)-ethoxy]-acetyl)2-(γ-Glu)-CO-(CH2)16-CO2H on K17, Aib20, C-terminal NH2) [Example 313] | 0.0233 nM | 0.0388 nM | 2.87 | 0.867
12 | YXEGTXTSDYSILLDEKAQXAFIEYLIEGGPSSG (Aib2, αMeF6, (2-[2-(2-Amino-ethoxy)-ethoxy]-acetyl)2-(γ-Glu)-CO-(CH2)16-CO2H on K17, Aib20, C-terminal NH2) [Example 307] | 0.0285 nM | 0.0437 nM | 2.48 | 1.29
13 | YXEGTXTSDYSILLDKKAQXEFIEYLIEGGPSSG (Aib2, αMeF6, (2-[2-(2-Amino-ethoxy)-ethoxy]-acetyl)2-(γ-Glu)-CO-(CH2)16-CO2H on K17, Aib20, C-terminal NH2) [Example 308] | 0.0262 nM | 0.0392 nM | 4.06 | 1.45
14 | YXEGTXTSDYSILLDKKAQXEFIEYLIAGGPSSG (Aib2, αMeF(2F)6, (2-[2-(2-Amino-ethoxy)-ethoxy]-acetyl)2-(γ-Glu)-CO-(CH2)16-CO2H on K17, Aib20, C-terminal NH2) [Example 314] | 0.029 nM | 0.029 nM | 2.81 | 1.48
15 | YXEGTFTSDYSIXLDEKAQXAFIEYLIEGGPSSG (Aib2, αMeL13, (2-[2-(2-Amino-ethoxy)-ethoxy]-acetyl)2-(γ-Glu)-CO-(CH2)16-CO2H on K17, Aib20, C-terminal NH2) [Example 303] | 0.0254 nM | 0.104 nM | 4.2 | 0.602
16 | Y[Aib]EGTFTSDYSILLDKK([AEEA-AEEA-γGlu-C18 diacid])AQ[Aib]AFVEYLIEGGPSSG-NH2 (N-terminus assumed; SMILES CC[C@H](C)[C@H](NC(=O)[C@H](CC(C)C)NC(=O)[C@H](Cc1ccc(O)cc1)NC(=O)[C@H](CCC(=O)O)NC(=O)[C@@H](NC(=O)[C@H](Cc1ccccc1)NC(=O)[C@H](C)NC(=O)C(C)(C)NC(=O)[C@H](CCC(N)=O)NC(=O)[C@H](C)NC(=O)[C@H](CCCCNC(=O)COCCOCCNC(=O)COCCOCCNC(=O)CC[C@H](NC(=O)CCCCCCCCCCCCCCCCC(=O)O)C(=O)O)NC(=O)[C@H](CCCCN)NC(=O)[C@H](CC(=O)O)NC(=O)[C@H](CC(C)C)NC(=O)[C@H](CC(C)C)NC(=O)[C@@H](NC(=O)[C@H](CO)NC(=O)[C@H](Cc1ccc(O)cc1)NC(=O)[C@H](CC(=O)O)NC(=O)[C@H](CO)NC(=O)[C@@H](NC(=O)[C@H](Cc1ccccc1)NC(=O)[C@@H](NC(=O)CNC(=O)[C@H](CCC(=O)O)NC(=O)C(C)(C)NC(=O)[C@@H](N)Cc1ccc(O)cc1)[C@@H](C)O)[C@@H](C)O)[C@@H](C)CC)C(C)C)C(=O)N[C@@H](CCC(=O)O)C(=O)NCC(=O)NCC(=O)N1CCC[C@H]1C(=O)N[C@@H](CO)C(=O)N[C@@H](CO)C(=O)NCC(N)=O) [Example 298] | 0.043 nM | 0.0957 nM | 2.87 | 0.507
17 | Y[Aib]EGTFTSDYSILLDKK([AEEA-AEEA-γGlu-C18 diacid])AQ[Aib]AFLEYLIEGGPSSG-NH2 (N-terminus assumed; SMILES CC[C@H](C)[C@H](NC(=O)[C@H](CC(C)C)NC(=O)[C@H](Cc1ccc(O)cc1)NC(=O)[C@H](CCC(=O)O)NC(=O)[C@H](CC(C)C)NC(=O)[C@H](Cc1ccccc1)NC(=O)[C@H](C)NC(=O)C(C)(C)NC(=O)[C@H](CCC(N)=O)NC(=O)[C@H](C)NC(=O)[C@H](CCCCNC(=O)COCCOCCNC(=O)COCCOCCNC(=O)CC[C@H](NC(=O)CCCCCCCCCCCCCCCCC(=O)O)C(=O)O)NC(=O)[C@H](CCCCN)NC(=O)[C@H](CC(=O)O)NC(=O)[C@H](CC(C)C)NC(=O)[C@H](CC(C)C)NC(=O)[C@@H](NC(=O)[C@H](CO)NC(=O)[C@H](Cc1ccc(O)cc1)NC(=O)[C@H](CC(=O)O)NC(=O)[C@H](CO)NC(=O)[C@@H](NC(=O)[C@H](Cc1ccccc1)NC(=O)[C@@H](NC(=O)CNC(=O)[C@H](CCC(=O)O)NC(=O)C(C)(C)NC(=O)[C@@H](N)Cc1ccc(O)cc1)[C@@H](C)O)[C@@H](C)O)[C@@H](C)CC)C(=O)N[C@@H](CCC(=O)O)C(=O)NCC(=O)NCC(=O)N1CCC[C@H]1C(=O)N[C@@H](CO)C(=O)N[C@@H](CO)C(=O)NCC(N)=O) [Example 299] | 0.932 nM | 2.54 nM | 0.146 | 0.0244
18 | Y[Aib]EGTFTSDYSILLDKK([AEEA-AEEA-γGlu-C18 diacid])AQ[Aib]AFIEYLIAGGPSSGAPPPS-NH2 (N-terminus assumed; SMILES CC[C@H](C)[C@H](NC(=O)[C@H](CC(C)C)NC(=O)[C@H](Cc1ccc(O)cc1)NC(=O)[C@H](CCC(=O)O)NC(=O)[C@@H](NC(=O)[C@H](Cc1ccccc1)NC(=O)[C@H](C)NC(=O)C(C)(C)NC(=O)[C@H](CCC(N)=O)NC(=O)[C@H](C)NC(=O)[C@H](CCCCNC(=O)COCCOCCNC(=O)COCCOCCNC(=O)CC[C@H](NC(=O)CCCCCCCCCCCCCCCCC(=O)O)C(=O)O)NC(=O)[C@H](CCCCN)NC(=O)[C@H](CC(=O)O)NC(=O)[C@H](CC(C)C)NC(=O)[C@H](CC(C)C)NC(=O)[C@@H](NC(=O)[C@H](CO)NC(=O)[C@H](Cc1ccc(O)cc1)NC(=O)[C@H](CC(=O)O)NC(=O)[C@H](CO)NC(=O)[C@@H](NC(=O)[C@H](Cc1ccccc1)NC(=O)[C@@H](NC(=O)CNC(=O)[C@H](CCC(=O)O)NC(=O)C(C)(C)NC(=O)[C@@H](N)Cc1ccc(O)cc1)[C@@H](C)O)[C@@H](C)O)[C@@H](C)CC)[C@@H](C)CC)C(=O)N[C@@H](C)C(=O)NCC(=O)NCC(=O)N1CCC[C@H]1C(=O)N[C@@H](CO)C(=O)N[C@@H](CO)C(=O)NCC(=O)N[C@@H](C)C(=O)N1CCC[C@H]1C(=O)N1CCC[C@H]1C(=O)N1CCC[C@H]1C(=O)N[C@@H](CO)C(N)=O) [Example 316] | 0.024 nM | 0.122 nM | 3.75 | 0.644
